The target in experiment [1] is T1, human amylin receptor (calcitonin receptor co-expressed with receptor activity modifying protein, RAMP3) (human, UniProt P30988 25-474; O60896 24-148).
T1 sequence (looked up) 1: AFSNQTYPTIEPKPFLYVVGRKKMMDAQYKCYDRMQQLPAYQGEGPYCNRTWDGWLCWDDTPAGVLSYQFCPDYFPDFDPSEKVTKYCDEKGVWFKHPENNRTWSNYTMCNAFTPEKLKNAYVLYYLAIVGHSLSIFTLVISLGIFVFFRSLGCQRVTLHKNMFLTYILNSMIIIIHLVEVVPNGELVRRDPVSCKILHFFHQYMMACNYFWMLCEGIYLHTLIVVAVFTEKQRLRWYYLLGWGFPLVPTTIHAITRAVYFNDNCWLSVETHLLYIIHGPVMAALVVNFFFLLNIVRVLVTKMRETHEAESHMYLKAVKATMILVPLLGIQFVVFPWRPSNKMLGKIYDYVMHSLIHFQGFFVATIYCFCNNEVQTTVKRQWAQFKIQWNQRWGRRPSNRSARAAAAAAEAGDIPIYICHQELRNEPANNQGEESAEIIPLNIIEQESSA
T1 sequence (looked up) 2: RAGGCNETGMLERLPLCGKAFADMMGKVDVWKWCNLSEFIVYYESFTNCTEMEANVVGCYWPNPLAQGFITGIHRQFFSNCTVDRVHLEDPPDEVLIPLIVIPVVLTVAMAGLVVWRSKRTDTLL
The experiment is described as follows: cell-based or functional assay.

The target of experiment [2] is T2, human calcitonin receptor (human, UniProt P30988 25-474).
T2 sequence (looked up): T1 sequence (looked up) 1
Kind of experiment: cell-based or functional assay.

Numbered stars: 1 amine (or outer) side, 2 acyl side, 3 side chain; on linkers, the order of the positions; unused ones are H or OH. Bridge positions count the residues as written; N and C are the ends. Square brackets hold non-standard residues; d marks the D form. Side chains are listed from the residue outwards. Ends that are not written are not given here. * marks the point of attachment. C18 diacid = O=C(O)CCCCCCCCCCCCCCCCC(=O)*; γGlu = O=C(O)[C@H](CCC(=O)[*:2])N[*:1]; Aib = CC(C)(N)C(=O)O

B1: Peptide 136 (SEQ ID NO: 136) (peptide)
peptide: K([γGlu-C18 diacid])KCNTATCATQRLANFL[Aib]HSSNNFGPILPPTNVGSNTP-NH2
modifications: disulfide 3-8; N-terminus assumed
SMILES: CC[C@H](C)[C@H](NC(=O)[C@@H]1CCCN1C(=O)CNC(=O)[C@H](Cc1ccccc1)NC(=O)[C@H](CC(N)=O)NC(=O)[C@H](CC(N)=O)NC(=O)[C@H](CO)NC(=O)[C@H](CO)NC(=O)[C@H](Cc1c[nH]cn1)NC(=O)C(C)(C)NC(=O)[C@H](CC(C)C)NC(=O)[C@H](Cc1ccccc1)NC(=O)[C@H](CC(N)=O)NC(=O)[C@H](C)NC(=O)[C@H](CC(C)C)NC(=O)[C@H](CCCNC(=N)N)NC(=O)[C@H](CCC(N)=O)NC(=O)[C@@H](NC(=O)[C@H](C)NC(=O)[C@@H]1CSSC[C@H](NC(=O)[C@H](CCCCN)NC(=O)[C@@H](N)CCCCNC(=O)CC[C@H](NC(=O)CCCCCCCCCCCCCCCCC(=O)O)C(=O)O)C(=O)N[C@@H](CC(N)=O)C(=O)N[C@@H]([C@@H](C)O)C(=O)N[C@@H](C)C(=O)N[C@@H]([C@@H](C)O)C(=O)N1)[C@@H](C)O)C(=O)N[C@@H](CC(C)C)C(=O)N1CCC[C@H]1C(=O)N1CCC[C@H]1C(=O)N[C@H](C(=O)N[C@@H](CC(N)=O)C(=O)N[C@H](C(=O)NCC(=O)N[C@@H](CO)C(=O)N[C@@H](CC(N)=O)C(=O)N[C@H](C(=O)N1CCC[C@H]1C(N)=O)[C@@H](C)O)C(C)C)[C@@H](C)O
Regarding B1, in experiment [1], the “EC50 (cAMP production)” value turned out to be 122 pM and the “Ratio (EC50 hCTR / EC50 hAMYR3)” value turned out to be 0.8. Besides, the “EC50 (cAMP production)” value in experiment [2] was found to be 101 pM.

B2: Peptide 137 (SEQ ID NO: 137) (peptide)
peptide: K([γGlu-C18 diacid])KCNTATCATQRLANFL[Aib]HSSRNFGPILPPTNVGSNTY-NH2
modifications: disulfide 3-8; N-terminus assumed
SMILES: CC[C@H](C)[C@H](NC(=O)[C@@H]1CCCN1C(=O)CNC(=O)[C@H](Cc1ccccc1)NC(=O)[C@H](CC(N)=O)NC(=O)[C@H](CCCNC(=N)N)NC(=O)[C@H](CO)NC(=O)[C@H](CO)NC(=O)[C@H](Cc1c[nH]cn1)NC(=O)C(C)(C)NC(=O)[C@H](CC(C)C)NC(=O)[C@H](Cc1ccccc1)NC(=O)[C@H](CC(N)=O)NC(=O)[C@H](C)NC(=O)[C@H](CC(C)C)NC(=O)[C@H](CCCNC(=N)N)NC(=O)[C@H](CCC(N)=O)NC(=O)[C@@H](NC(=O)[C@H](C)NC(=O)[C@@H]1CSSC[C@H](NC(=O)[C@H](CCCCN)NC(=O)[C@@H](N)CCCCNC(=O)CC[C@H](NC(=O)CCCCCCCCCCCCCCCCC(=O)O)C(=O)O)C(=O)N[C@@H](CC(N)=O)C(=O)N[C@@H]([C@@H](C)O)C(=O)N[C@@H](C)C(=O)N[C@@H]([C@@H](C)O)C(=O)N1)[C@@H](C)O)C(=O)N[C@@H](CC(C)C)C(=O)N1CCC[C@H]1C(=O)N1CCC[C@H]1C(=O)N[C@H](C(=O)N[C@@H](CC(N)=O)C(=O)N[C@H](C(=O)NCC(=O)N[C@@H](CO)C(=O)N[C@@H](CC(N)=O)C(=O)N[C@H](C(=O)N[C@@H](Cc1ccc(O)cc1)C(N)=O)[C@@H](C)O)C(C)C)[C@@H](C)O
B2: in experiment [1], the “EC50 (cAMP production)” value was found to be 238 pM and the “Ratio (EC50 hCTR / EC50 hAMYR3)” value is 6.3. Also, the “EC50 (cAMP production)” value in experiment [2] came to 1500 pM.
